Patent US20250076311A1 (Chugai, published 2025)
Values belong to the binder of their own block, whether it stands above or below them.

Columns and labels:
[1] = target: T1, human FcγRIIIaV extracellular domain, His-tagged (human, UniProt P08637 17-208); assay: SPR (BIACORE), antibody captured on chip, FcγR as analyte, 25 C; KD of SG1 divided by KD of the variant
T1 construct: also called human FcγRIIIa (V158 allotype); FcgRIIIaV; not shown: His-tag added to the C-terminus
Method: (§1) The kinetic analysis of interactions between these antibodies and FcγR was carried out using BIACORE® T200 or BIACORE® 4000 (GE Healthcare). HBS-EP+ (GE Healthcare) was used as the running buffer, and the measurement temperature was set to 25° C. […] After the measurement, the antibody captured on the chip was washed off by allowing reaction with 10 mM glycine-HCl, pH1.5 and 25 mM NaOH so that the chip was regenerated and used repeatedly. The sensorgrams obtained as measurement results were analyzed by the 1:1 Langmuir binding model using the BIACORE® Evaluation Software to calculate the binding rate constant ka (L/mol/s) and dissociation rate constant kd (1/s), and the dissociation constant KD (mol/L) was calculated from these values. […] Regarding such interactions, KD values were calculated using the following 1:1 binding model described in BIACORE® T100 Software Handbook BR1006-48 Edition AE.

[2] = target: T2, human FcγRIIaH extracellular domain, His-tagged (human, UniProt P12318 34-217); assay: as above
T2 construct: also called human FcγRIIa (type H); FcgRIIaH; not shown: His-tag added to the C-terminus
T2 sequence: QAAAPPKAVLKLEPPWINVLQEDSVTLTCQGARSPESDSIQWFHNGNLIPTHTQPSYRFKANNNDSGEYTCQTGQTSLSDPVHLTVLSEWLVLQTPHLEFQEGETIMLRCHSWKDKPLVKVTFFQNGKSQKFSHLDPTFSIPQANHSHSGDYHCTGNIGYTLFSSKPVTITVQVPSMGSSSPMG
Method: as §1

[3] = target: T3, cynomolgus monkey FcγRIIa1 extracellular domain with C-terminal His-tag (cynomolgus monkey); assay: SPR (Biacore), antibody captured, FcgR as analyte
T3 construct: also called cyno FcgRIIa1; cynoFcγRIIa1
T3 chain: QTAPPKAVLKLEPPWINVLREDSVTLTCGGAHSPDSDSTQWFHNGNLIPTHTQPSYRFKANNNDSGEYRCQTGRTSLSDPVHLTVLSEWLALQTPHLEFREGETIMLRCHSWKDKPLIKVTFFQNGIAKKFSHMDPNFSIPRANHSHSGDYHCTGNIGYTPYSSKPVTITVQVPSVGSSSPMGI

[4] = target: T4, cynomolgus monkey FcγRIIIaS extracellular domain with C-terminal His-tag (cynomolgus monkey, UniProt Q8SPW2 21-206 at identity 1.00)); assay: SPR (Biacore), antibody captured, FcgR as analyte
T4 construct: also called cyno FcgRIIIaS; cynoFcγRIIIaS
T4 chain: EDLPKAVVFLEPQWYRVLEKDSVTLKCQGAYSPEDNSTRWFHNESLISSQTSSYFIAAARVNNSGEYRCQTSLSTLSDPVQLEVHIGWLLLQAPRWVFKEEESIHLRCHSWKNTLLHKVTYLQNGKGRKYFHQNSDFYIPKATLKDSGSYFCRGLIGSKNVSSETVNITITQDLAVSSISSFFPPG

[5] = target: T5, cynomolgus monkey FcγRIIa2 extracellular domain with C-terminal His-tag (cynomolgus monkey); assay: SPR (Biacore), KD of SG1 divided by KD of variant
T5 construct: also called cyno FcgRIIa2; cynoFcγRIIa2
T5 chain: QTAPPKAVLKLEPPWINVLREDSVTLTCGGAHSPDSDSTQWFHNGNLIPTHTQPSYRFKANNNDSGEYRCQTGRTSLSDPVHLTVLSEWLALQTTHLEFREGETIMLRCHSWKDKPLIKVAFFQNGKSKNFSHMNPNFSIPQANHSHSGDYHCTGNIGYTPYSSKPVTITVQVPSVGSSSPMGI

[6] = target: T6, human FcγRIIb extracellular domain with C-terminal His-tag (human, UniProt P31994 43-217); assay: SPR (Biacore), antibody captured, FcgR as analyte
T6 construct: also called human FcgRIIb
T6 sequence: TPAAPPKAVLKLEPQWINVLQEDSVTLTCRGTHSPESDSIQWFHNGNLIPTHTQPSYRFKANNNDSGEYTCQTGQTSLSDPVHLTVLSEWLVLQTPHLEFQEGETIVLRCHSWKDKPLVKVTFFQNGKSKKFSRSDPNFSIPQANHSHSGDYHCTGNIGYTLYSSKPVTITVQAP

[7] = target: T6, human FcγRIIb extracellular domain with …; assay: SPR (Biacore), KD of SG1 divided by KD of variant
[8] = target: T7, cynomolgus monkey FcγRIIa3 extracellular domain with C-terminal His-tag (cynomolgus monkey); assay: SPR (Biacore), antibody captured, FcgR as analyte
T7 construct: also called cyno FcgRIIa3; cynoFcγRIIa3
T7 chain: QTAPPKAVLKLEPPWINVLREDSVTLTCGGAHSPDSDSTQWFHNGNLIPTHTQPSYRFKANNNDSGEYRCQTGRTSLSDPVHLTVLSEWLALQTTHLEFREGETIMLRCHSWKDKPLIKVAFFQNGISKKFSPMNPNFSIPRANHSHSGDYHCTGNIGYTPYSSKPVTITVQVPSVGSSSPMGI

[9] = target: T8, human FcγRIIaR extracellular domain with C-terminal His-tag (human, UniProt P12318 34-217); assay: SPR (Biacore), antibody captured, FcgR as analyte
T8 construct: also called human FcgRIIaR; FcγRIIa (type R)
T8 chain: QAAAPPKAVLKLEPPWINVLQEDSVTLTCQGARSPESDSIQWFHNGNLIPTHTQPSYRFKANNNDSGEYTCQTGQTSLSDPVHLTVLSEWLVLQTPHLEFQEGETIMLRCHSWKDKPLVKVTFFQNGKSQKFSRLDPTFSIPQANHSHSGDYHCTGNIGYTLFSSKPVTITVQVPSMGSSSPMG

T1 sequence (P08637 17-208 F176V): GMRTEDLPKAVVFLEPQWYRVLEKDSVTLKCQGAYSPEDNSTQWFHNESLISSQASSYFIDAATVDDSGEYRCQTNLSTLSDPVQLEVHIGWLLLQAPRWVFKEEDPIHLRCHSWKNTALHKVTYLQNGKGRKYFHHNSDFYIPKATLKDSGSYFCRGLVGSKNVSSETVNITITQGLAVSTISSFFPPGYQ

KD fold for humanFcgRs (SG1 = 1) [1]: 0.24 fold
KD fold for humanFcgRs (SG1 = 1) [2]: 9.7 fold
B1: M103205H795-MY321/M103202L889-SK1 (antibody, human IgG1, kappa, name in EU numbering)
heavy: QVTLKESGPVLVKPTETLTLTCTVSGIDLSHDDISWVRQAPGKGLEWVGIISYAGSTYYASWAKGRLTISKDTSKNQVVLTMTNMDPVDTATYYCARGVPAYSHGGDLWGQGTLVTVSSASTKGPSVFPLAPSSKSTSGGTAALGCLVKDYFPEPVTVSWNSGALTSGVHTFPAVLQSSGLYSLSSVVTVPSSSLGTQTYICNVNHKPSNTKVDKKVEPKSCDKTHTCPPCPAPELLHGPSVFLFPPKPKDTLMISRTPEVTCVVVDVSDEDPEVKFNWYVDGVEVHNAKTKPREEQYNSTYRVVSVLTVLHQDWLNGKEYKCKVSNKALPKPIEKTISKAKGQPREPQVYTLPPSREEMTKNQVSLTCLVKGFYPSDIAVEWESNGQPENNYKTTPMVLDSDGSFFLYSKLTVDKSRWQQGNVFSCSVMHEALHNHYTQKSLSLSP
light: DIVMTQSPATLSLSPGERATLSCTSSQSVYHANWLSWFQQKPGQPPKLLIYWASTLAYGVPSRFSGSGSGTDFTLTISSLQPEDAATYYCAGGYGGGRYAFGQGTKVEIKRTVAAPSVFIFPPSDEQLKSGTASVVCLLNNFYPREAKVQWKVDNALQSGNSQESVTEQDSKDSTYSLSSTLTLSKADYEKHKVYACEVTHQGLSSPVTKSFNRGEC
notes: Fc variant made by introducing substitutions into M103205H795-SG1; expressed with M103202L889-SK1 as light chain; Substitution positions are EU numbering

Kd [3]: 1300 nM
Kd [4]: 1600 nM
B2: M103205H795-MY526 / M103202L889-SK1 (antibody, human IgG1, kappa, name in EU numbering)
heavy: QVTLKESGPVLVKPTETLTLTCTVSGIDLSHDDISWVRQAPGKGLEWVGIISYAGSTYYASWAKGRLTISKDTSKNQVVLTMTNMDPVDTATYYCARGVPAYSHGGDLWGQGTLVTVSSASTKGPSVFPLAPSSKSTSGGTAALGCLVKDYFPEPVTVSWNSGALTSGVHTFPAVLQSSGLYSLSSVVTVPSSSLGTQTYICNVNHKPSNTKVDKKVEPKSCDKTHTCPPCPTPELLTGPVVFLFPPKPKDTLMISRTPEVTCVVVDVSDEDPEVKFNWYVDGVEVHNAKTKPREELYNSTYRVVSVLTVLHQDWLNGKEYKCKVSNKALPKPIEKTISKAKGQPREPQVYTLPPSREEMTKNQVSLTCLVKGFYPSDIAVEWESNGQPENNYKTTPPVLDSDGSFFLYSKLTVDKSRWQQGNVFSCSVMHEALHNHYTQKSLSLSP
light: DIVMTQSPATLSLSPGERATLSCTSSQSVYHANWLSWFQQKPGQPPKLLIYWASTLAYGVPSRFSGSGSGTDFTLTISSLQPEDAATYYCAGGYGGGRYAFGQGTKVEIKRTVAAPSVFIFPPSDEQLKSGTASVVCLLNNFYPREAKVQWKVDNALQSGNSQESVTEQDSKDSTYSLSSTLTLSKADYEKHKVYACEVTHQGLSSPVTKSFNRGEC

KD fold (SG1 = 1) [5]: 3.5 fold
Kd [6]: 1200 nM
B3: M103205H795-MY534 / M103202L889-SK1 (antibody, human IgG1, kappa, name in EU numbering)
heavy: QVTLKESGPVLVKPTETLTLTCTVSGIDLSHDDISWVRQAPGKGLEWVGIISYAGSTYYASWAKGRLTISKDTSKNQVVLTMTNMDPVDTATYYCARGVPAYSHGGDLWGQGTLVTVSSASTKGPSVFPLAPSSKSTSGGTAALGCLVKDYFPEPVTVSWNSGALTSGVHTFPAVLQSSGLYSLSSVVTVPSSSLGTQTYICNVNHKPSNTKVDKKVEPKSCDKTHTCPPCPAPELLTGPVVFLFPPKPKDTLMISRTPEVTCVVVDVSDEDPEVKFNWYVDGVEVHNAKTKPREELYNSTYRVVSVLTVLHQDWLNGKEYKCKVSNKALPKPIEKTISKAKGQPREPQVYTLPPSREEMTKNQVSLTCLVKGFYPSDIAVEWESNGQPENNYKTTPPVLDSDGSFFLYSKLTVDKSRWQQGNVFSCSVMHEALHNHYTQKSLSLSP
light: DIVMTQSPATLSLSPGERATLSCTSSQSVYHANWLSWFQQKPGQPPKLLIYWASTLAYGVPSRFSGSGSGTDFTLTISSLQPEDAATYYCAGGYGGGRYAFGQGTKVEIKRTVAAPSVFIFPPSDEQLKSGTASVVCLLNNFYPREAKVQWKVDNALQSGNSQESVTEQDSKDSTYSLSSTLTLSKADYEKHKVYACEVTHQGLSSPVTKSFNRGEC

KD fold (SG1 = 1) [7]: 1.6 fold
Kd [8]: 9800 nM
Kd [9]: 630 nM
B4: M103205H795-MY339 / M103202L889-SK1 (antibody, human IgG1, kappa, name in EU numbering)
heavy: QVTLKESGPVLVKPTETLTLTCTVSGIDLSHDDISWVRQAPGKGLEWVGIISYAGSTYYASWAKGRLTISKDTSKNQVVLTMTNMDPVDTATYYCARGVPAYSHGGDLWGQGTLVTVSSASTKGPSVFPLAPSSKSTSGGTAALGCLVKDYFPEPVTVSWNSGALTSGVHTFPAVLQSSGLYSLSSVVTVPSSSLGTQTYICNVNHKPSNTKVDKKVEPKSCDKTHTCPPCPAPELLLGPSVFLFPPKPKDTLMISRTPEVTCVVVDVSDEDPEVKFNWYVDGVEVHNAKTKPREEQYNSTYRVVSVLTVLHQDWLNGKEYKCKVSNTALPKPIEKTISKAKGQPREPQVYTLPPSREEMTKNQVSLTCLVKGFYPSDIAVEWESNGQPENNYKTTPKVLDSDGSFFLYSKLTVDKSRWQQGNVFSCSVMHEALHNHYTQKSLSLSP
light: DIVMTQSPATLSLSPGERATLSCTSSQSVYHANWLSWFQQKPGQPPKLLIYWASTLAYGVPSRFSGSGSGTDFTLTISSLQPEDAATYYCAGGYGGGRYAFGQGTKVEIKRTVAAPSVFIFPPSDEQLKSGTASVVCLLNNFYPREAKVQWKVDNALQSGNSQESVTEQDSKDSTYSLSSTLTLSKADYEKHKVYACEVTHQGLSSPVTKSFNRGEC
